Reference: publication PMC9841435, “Structural basis of DNA polymerase θ mediated DNA end joining” (Nucleic Acids Research, 2022)
Read-outs that look alike come from different tables or passages of the source. Values belong to the molecule of their own block, whether it stands above or below them.

How the values were obtained:
LcPol θ-pol [1] = system: T1, LcPol θ-pol; experiment: steady-state primer extension, denaturing PAGE of 6-FAM hairpin DNA; assay type: biochemical, Lates calcarifer; conditions: Δloop2_b (ΔV2405–R2448); 1 μM hairpin DNA HP [3,9], 200 nM enzyme, 5 mM MgCl2, 100 mM KCl, pH 7.6, 37 °C; read-out: KM, dATP
T1 construct: gene polq; C-terminal polymerase domain (pseudo-exonuclease, thumb, finger, palm), residues 1950-2714 of 2714; synthetic gene in pETsumo2; His6-SUMO tag removed by SENP2; E. coli Rosetta2 (DE3); mainly monomeric

LcPol θ-pol [2] = system: T1, LcPol θ-pol; experiment: as above; assay type: biochemical, Lates calcarifer; conditions: 1 μM hairpin DNA HP [3,9], 1 nM enzyme, 5 mM MgCl2, 100 mM KCl, pH 7.6, 37 °C; read-out: KM, dATP
LcPol theta-pol WT [3] = biological target: T2, LcPol theta-pol WT (Lates calcarifer, UniProt PDB:8EFK_1 1-864); experiment: cryo-EM; dGTP, Mg2+; complex Ia, 2.4 A, 11 bp visible; EMSA: 10 nM HP [3,9], 25 mM HEPES pH 8.0, 100 mM KCl, 3 mM DTT, 100 ug/ml BSA, 10% glycerol, 2.5 mM EDTA, 0.01% NP40, on ice 20 min; 6% native PAGE, Tris-glycine; Hill fit; conditions: protein: recombinant; tags: His6-SUMO, removed by SENP2; primer/template, 20 bp, template 5' overhang 9 nt
[4] = biological target: LcPol theta-pol R2306A/R2307A (Lates calcarifer, UniProt PDB:8EFK_1 1-864, R456A;R457A); experiment: EMSA; 2.5 mM EDTA; affinity similar to WT; EMSA: 10 nM HP [3,9], 25 mM HEPES pH 8.0, 100 mM KCl, 3 mM DTT, 100 ug/ml BSA, 10% glycerol, 2.5 mM EDTA, 0.01% NP40, on ice 20 min; 6% native PAGE, Tris-glycine; Hill fit; conditions: protein: recombinant; tags: His6-SUMO, removed by SENP2; label: 5' 6-FAM; hairpin, 3-bp stem, 9-nt dT loop, 5' overhang 8 nt
[5] = biological target: LcPol theta-pol K2299A/K2300A (Lates calcarifer, UniProt PDB:8EFK_1 1-864, K449A;K450A); experiment: as above; conditions: protein: recombinant; tags: His6-SUMO, removed by SENP2; label: 5' 6-FAM; hairpin, 3-bp stem, 9-nt dT loop, 5' overhang 8 nt
LcPol theta-pol Δloop2_a = LcPol theta-pol Δloop2_a (Lates calcarifer, UniProt PDB:8EFK_1 1-864, del552-591); experiment: EMSA; 2.5 mM EDTA; Kd comparable to WT; EMSA: 10 nM HP [3,9], 25 mM HEPES pH 8.0, 100 mM KCl, 3 mM DTT, 100 ug/ml BSA, 10% glycerol, 2.5 mM EDTA, 0.01% NP40, on ice 20 min; 6% native PAGE, Tris-glycine; Hill fit; conditions: protein: recombinant; tags: His6-SUMO, removed by SENP2; label: 5' 6-FAM; hairpin, 3-bp stem, 9-nt dT loop, 5' overhang 8 nt
LcPol theta-pol Δloop2_b = LcPol theta-pol Δloop2_b (Lates calcarifer, UniProt PDB:8EFK_1 1-864, del555-598); experiment: as above; conditions: protein: recombinant; tags: His6-SUMO, removed by SENP2; label: 5' 6-FAM; hairpin, 3-bp stem, 9-nt dT loop, 5' overhang 8 nt
LcPol theta-pol R2448A = LcPol theta-pol R2448A (Lates calcarifer, UniProt PDB:8EFK_1 1-864, R598A); experiment: as above; conditions: protein: recombinant; tags: His6-SUMO, removed by SENP2; label: 5' 6-FAM; hairpin, 3-bp stem, 9-nt dT loop, 5' overhang 8 nt
LcPol theta-pol WT [6] = biological target: T2, LcPol theta-pol WT; experiment: EMSA; 2.5 mM EDTA, no dNTP; EMSA: 10 nM HP [3,9], 25 mM HEPES pH 8.0, 100 mM KCl, 3 mM DTT, 100 ug/ml BSA, 10% glycerol, 2.5 mM EDTA, 0.01% NP40, on ice 20 min; 6% native PAGE, Tris-glycine; Hill fit; conditions: protein: recombinant; tags: His6-SUMO, removed by SENP2; label: 5' 6-FAM; hairpin, 3-bp stem, 9-nt dT loop, 5' overhang 8 nt
[7] = biological target: LcPol theta-pol K2299A/K2300A/R2306A/R2307A (Lates calcarifer, UniProt PDB:8EFK_1 1-864, K449A;K450A;R456A;R457A); experiment: as above; conditions: protein: recombinant; tags: His6-SUMO, removed by SENP2; label: 5' 6-FAM; hairpin, 3-bp stem, 9-nt dT loop, 5' overhang 8 nt
LcPol theta-pol Δloop1 = LcPol theta-pol Δloop1 (Lates calcarifer, UniProt PDB:8EFK_1 1-864, del443-461); experiment: as above; conditions: protein: recombinant; tags: His6-SUMO, removed by SENP2; label: 5' 6-FAM; hairpin, 3-bp stem, 9-nt dT loop, 5' overhang 8 nt
LcPol theta-pol Δloop1, sequence (chain, as listed by the source del443-461 | mutant): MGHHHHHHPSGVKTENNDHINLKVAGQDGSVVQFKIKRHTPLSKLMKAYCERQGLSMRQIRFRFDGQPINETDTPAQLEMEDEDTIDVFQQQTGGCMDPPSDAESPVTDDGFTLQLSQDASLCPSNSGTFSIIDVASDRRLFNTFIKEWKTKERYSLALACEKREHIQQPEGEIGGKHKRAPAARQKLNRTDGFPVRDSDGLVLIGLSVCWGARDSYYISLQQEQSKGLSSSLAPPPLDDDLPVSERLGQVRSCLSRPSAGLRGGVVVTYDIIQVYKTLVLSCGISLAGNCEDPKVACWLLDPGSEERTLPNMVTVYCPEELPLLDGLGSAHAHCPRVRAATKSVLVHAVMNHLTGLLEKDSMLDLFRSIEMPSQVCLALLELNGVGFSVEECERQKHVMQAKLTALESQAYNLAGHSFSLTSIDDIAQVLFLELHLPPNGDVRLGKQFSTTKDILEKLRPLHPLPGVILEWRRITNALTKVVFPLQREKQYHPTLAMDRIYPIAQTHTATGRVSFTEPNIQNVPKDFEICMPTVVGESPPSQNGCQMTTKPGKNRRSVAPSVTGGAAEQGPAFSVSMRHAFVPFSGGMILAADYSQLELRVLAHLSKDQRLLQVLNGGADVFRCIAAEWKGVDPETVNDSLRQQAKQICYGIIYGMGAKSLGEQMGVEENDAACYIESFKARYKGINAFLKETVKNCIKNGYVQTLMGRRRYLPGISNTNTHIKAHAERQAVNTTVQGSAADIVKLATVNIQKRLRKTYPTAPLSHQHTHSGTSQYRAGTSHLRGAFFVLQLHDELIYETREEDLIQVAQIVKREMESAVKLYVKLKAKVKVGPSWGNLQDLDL

T2 sequence (chain, as listed by the source): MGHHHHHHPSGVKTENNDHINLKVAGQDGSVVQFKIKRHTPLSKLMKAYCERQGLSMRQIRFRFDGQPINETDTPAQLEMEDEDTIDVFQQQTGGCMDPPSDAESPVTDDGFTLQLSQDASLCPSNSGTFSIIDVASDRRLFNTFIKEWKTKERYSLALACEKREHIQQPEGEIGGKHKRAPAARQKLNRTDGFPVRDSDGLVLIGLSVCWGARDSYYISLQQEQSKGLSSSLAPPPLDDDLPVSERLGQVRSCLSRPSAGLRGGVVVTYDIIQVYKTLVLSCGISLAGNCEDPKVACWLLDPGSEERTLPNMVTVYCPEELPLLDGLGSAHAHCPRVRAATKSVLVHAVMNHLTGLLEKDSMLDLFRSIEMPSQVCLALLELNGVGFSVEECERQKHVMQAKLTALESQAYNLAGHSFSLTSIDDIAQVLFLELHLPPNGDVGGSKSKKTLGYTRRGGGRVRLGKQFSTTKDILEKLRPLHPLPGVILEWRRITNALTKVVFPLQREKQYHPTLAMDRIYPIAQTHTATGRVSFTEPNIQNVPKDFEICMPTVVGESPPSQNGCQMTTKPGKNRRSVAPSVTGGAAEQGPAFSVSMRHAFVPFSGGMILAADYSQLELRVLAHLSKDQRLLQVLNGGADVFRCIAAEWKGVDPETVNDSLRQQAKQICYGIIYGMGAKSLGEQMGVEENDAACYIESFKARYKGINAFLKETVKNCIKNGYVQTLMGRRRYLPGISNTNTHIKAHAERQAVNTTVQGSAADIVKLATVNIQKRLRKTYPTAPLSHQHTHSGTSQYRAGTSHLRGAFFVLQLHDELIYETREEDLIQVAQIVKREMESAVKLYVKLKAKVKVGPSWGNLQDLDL
LcPol theta-pol R2306A/R2307A, sequence (chain, as listed by the source R456A;R457A | R2306A R2307A R2306A R2307A): as the sequence (chain, as listed by the source) above, with R456A, R457A counted along it
LcPol theta-pol K2299A/K2300A, sequence (chain, as listed by the source K449A;K450A | K2299A K2300A K2299A K2300A): as the sequence (chain, as listed by the source) above, with K449A, K450A counted along it
LcPol theta-pol K2299A/K2300A/R2306A/R2307A, sequence (chain, as listed by the source with the stated changes): as the sequence (chain, as listed by the source) above, with K449A, K450A, R456A, R457A counted along it
LcPol theta-pol R2448A, sequence (chain, as listed by the source R598A | R2448A R2448A): as the sequence (chain, as listed by the source) above, with R598A counted along it
LcPol theta-pol Δloop2_a, sequence (chain, as listed by the source del552-591 | mutant): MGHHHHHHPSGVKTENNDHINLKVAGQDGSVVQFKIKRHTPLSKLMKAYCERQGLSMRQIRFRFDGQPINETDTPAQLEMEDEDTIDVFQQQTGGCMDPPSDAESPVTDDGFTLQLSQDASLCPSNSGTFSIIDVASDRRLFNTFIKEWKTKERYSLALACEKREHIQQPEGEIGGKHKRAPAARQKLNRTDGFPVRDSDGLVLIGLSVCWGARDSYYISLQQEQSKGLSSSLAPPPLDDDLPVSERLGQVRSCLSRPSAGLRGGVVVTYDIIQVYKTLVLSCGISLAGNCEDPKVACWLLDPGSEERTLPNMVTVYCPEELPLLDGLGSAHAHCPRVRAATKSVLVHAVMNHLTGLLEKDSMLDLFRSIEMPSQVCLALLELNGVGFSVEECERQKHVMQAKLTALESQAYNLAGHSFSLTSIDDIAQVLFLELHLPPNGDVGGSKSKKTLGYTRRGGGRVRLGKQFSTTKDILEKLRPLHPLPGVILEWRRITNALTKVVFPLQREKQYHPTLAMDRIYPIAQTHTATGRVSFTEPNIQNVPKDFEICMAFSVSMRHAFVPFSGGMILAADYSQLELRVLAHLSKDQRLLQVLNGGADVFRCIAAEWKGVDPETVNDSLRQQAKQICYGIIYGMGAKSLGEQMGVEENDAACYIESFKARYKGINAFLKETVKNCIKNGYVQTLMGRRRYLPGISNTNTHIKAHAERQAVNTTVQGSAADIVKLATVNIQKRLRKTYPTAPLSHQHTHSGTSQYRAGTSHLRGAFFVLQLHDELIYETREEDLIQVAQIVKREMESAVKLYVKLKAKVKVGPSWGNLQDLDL
LcPol theta-pol Δloop2_b, sequence (chain, as listed by the source del555-598 | mutant): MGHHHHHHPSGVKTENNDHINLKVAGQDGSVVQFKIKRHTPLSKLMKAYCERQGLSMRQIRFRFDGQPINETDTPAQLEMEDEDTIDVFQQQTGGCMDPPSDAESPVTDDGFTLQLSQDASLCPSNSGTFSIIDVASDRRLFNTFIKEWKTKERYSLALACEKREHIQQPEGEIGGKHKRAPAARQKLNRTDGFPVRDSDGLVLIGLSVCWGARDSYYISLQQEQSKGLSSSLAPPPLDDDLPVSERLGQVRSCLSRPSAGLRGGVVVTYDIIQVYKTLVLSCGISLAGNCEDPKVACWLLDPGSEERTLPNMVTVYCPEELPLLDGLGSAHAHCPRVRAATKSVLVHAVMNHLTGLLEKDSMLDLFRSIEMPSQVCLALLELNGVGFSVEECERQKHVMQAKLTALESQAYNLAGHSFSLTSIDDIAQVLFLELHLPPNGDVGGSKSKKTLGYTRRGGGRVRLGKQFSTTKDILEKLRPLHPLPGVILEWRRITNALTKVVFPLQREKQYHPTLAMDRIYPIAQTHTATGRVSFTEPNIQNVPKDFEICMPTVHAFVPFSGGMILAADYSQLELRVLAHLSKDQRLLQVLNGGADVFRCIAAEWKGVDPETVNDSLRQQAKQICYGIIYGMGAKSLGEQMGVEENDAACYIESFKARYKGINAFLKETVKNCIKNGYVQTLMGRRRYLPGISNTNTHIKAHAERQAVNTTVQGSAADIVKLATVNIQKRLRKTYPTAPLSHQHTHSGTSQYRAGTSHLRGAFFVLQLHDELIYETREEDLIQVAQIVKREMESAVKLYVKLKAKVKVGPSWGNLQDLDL

Km (LcPol θ-pol [1]): 157 µM | Km (LcPol θ-pol [2]): 12 µM
Molecule: Nc1ncnc2c1ncn2[C@H]1C[C@H](O)[C@@H](COP(=O)(O)OP(=O)(O)OP(=O)(O)O)O1 [dATP]

B1: 20/29 mer dsDNA, ddA-terminated primer (dsDNA)
DNA 1: TGCTGTGAGGCATCCGTAGA
DNA 2: GCAGTCAGCTCTACGGATGCCTCACAGCA
modifications: 3'-terminal dideoxy-A on primer
binding result (LcPol theta-pol WT [3]): binds

B2: HP [3,9] (structured_DNA)
DNA: TTTTTTTTGGCTTTTTTTTTGCC
binding result [4]: binds | binding result [5]: binds | binding result (LcPol theta-pol Δloop2_a): binds | binding result (LcPol theta-pol Δloop2_b): binds | binding result (LcPol theta-pol R2448A): binds | Kd (LcPol theta-pol WT [6]): 29 nM | Kd [7]: 50 nM | Kd (LcPol theta-pol Δloop1): 138 nM
